Legend:
Isw1 (residues 69-1129) = Isw1 (residues 69-1129) (S. cerevisiae, UniProt P38144 69-1129); assay: cryo-EM structure
[1] = molecular target: histone H4 (Xenopus), in the nucleosome (Xenopus, UniProt P62799 1-103); assay: cryo-EM structure

Sequence of Isw1 (residues 69-1129) (P38144 69-1129): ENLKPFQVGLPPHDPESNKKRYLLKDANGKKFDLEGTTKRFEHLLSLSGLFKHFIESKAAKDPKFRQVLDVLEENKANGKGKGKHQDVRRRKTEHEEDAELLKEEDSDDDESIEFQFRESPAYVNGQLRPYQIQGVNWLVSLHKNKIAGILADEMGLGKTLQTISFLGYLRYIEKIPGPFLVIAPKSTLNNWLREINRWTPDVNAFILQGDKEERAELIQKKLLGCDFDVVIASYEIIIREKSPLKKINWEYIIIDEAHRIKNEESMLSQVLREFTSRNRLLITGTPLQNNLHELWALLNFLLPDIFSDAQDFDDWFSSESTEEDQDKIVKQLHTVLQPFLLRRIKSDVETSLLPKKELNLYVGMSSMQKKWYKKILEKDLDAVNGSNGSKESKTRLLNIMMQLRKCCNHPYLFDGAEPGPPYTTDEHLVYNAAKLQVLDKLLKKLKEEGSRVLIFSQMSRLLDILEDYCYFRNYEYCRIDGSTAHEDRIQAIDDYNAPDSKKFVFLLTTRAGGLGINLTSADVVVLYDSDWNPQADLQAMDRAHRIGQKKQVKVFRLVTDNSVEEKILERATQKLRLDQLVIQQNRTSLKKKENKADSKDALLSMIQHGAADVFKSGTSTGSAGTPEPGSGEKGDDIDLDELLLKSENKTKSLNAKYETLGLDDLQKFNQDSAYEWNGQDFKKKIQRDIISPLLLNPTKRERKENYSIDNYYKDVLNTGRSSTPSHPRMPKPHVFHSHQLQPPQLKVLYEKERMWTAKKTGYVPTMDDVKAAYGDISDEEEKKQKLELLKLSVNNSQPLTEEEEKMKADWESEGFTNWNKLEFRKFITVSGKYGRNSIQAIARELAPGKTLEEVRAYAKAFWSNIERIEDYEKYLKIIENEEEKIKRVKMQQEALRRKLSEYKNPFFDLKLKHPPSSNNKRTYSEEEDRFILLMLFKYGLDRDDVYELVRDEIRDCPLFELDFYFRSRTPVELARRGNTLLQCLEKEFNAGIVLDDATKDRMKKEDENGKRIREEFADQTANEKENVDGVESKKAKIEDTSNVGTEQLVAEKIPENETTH

B1: Ioc3 (residues 127-749) (domain or fragment)
chain: VAPKPKPAHEQVEPALIPSNWTSVIPLLTSDFKNQYSVISRLKNPNMKPVPYAGDIIKLMAFINKFSSFFHSDLQNLSFQDFEVGLDLYPGDPNGSAAGIVKGPEDTSLLLYPDFMAIKDIVYCQDKMNLLFLSLLDLTFTENFDGKSAKKKGPLTTWENLKSSSKKVFSNPLYRLRLVAREWGYPREWRQQLPSDQDISKPKTALFEQDEQTPVVDPSHPEILTPNIYTWNANEPLPLESNPLYNREMDKNGILALKPMDRVVLLRALTDWCASHSSAIHDEIYKLTHGKKDPVFGIQTQQVPRYTIEGVDNTINQFKKLCSLIQSRYEIRSKKKHFVKQLKEGKKPDLSRKLEILKEIKAELKNAVKSEKDELLFSLYDKWVPLFEGELPDQPLANPFSERLYKLRLQEFFLGRVPHIGDFYMPRLHSYGDSLEMSTFTDLRNLQALLSKFKNNEYNAFTLFENDGQSMSAQFKLFYHDTPSLAHDVARGRNTSGKVYWYELCHDSATLLEFLEFLDYKIVKPQDEKKEGNEKEKEALNNEAHILEQKSTTDNNPSINTNPLPKDAKYNTARKKLQILKEFLSDYYFILRQFEQMKVQFADMKPGKRQLRRIQRQTVNYNT
binding result (Isw1 (residues 69-1129)): binds
binding result [1]: binds
